Measurements published in patent US20160272683A1 (Novo Nordisk, published 2016).
Numbered stars: 1 amine (or outer) side, 2 acyl side, 3 side chain; on linkers, the order of the positions; unused ones are H or OH. Side chains are listed from the residue outwards. Ends that are not written are not given here. * marks the point of attachment. C20 diacid = O=C(O)CCCCCCCCCCCCCCCCCCC(=O)*; C18 diacid = O=C(O)CCCCCCCCCCCCCCCCC(=O)*; C16 diacid = O=C(O)CCCCCCCCCCCCCCC(=O)*; γGlu = O=C(O)[C@H](CCC(=O)[*:2])N[*:1]; C14 diacid = O=C(O)CCCCCCCCCCCCC(=O)*; AEEA = NCCOCCOCC(=O)O

How the values were obtained:
[1] = molecular target: T1, human amylin 3(a) receptor (human calcitonin receptor co-expressed with RAMP-3) (human, UniProt P30988 25-474; O60896 24-148, limits assumed); test: cell-based or functional assay
T1 sequence (looked up) 1: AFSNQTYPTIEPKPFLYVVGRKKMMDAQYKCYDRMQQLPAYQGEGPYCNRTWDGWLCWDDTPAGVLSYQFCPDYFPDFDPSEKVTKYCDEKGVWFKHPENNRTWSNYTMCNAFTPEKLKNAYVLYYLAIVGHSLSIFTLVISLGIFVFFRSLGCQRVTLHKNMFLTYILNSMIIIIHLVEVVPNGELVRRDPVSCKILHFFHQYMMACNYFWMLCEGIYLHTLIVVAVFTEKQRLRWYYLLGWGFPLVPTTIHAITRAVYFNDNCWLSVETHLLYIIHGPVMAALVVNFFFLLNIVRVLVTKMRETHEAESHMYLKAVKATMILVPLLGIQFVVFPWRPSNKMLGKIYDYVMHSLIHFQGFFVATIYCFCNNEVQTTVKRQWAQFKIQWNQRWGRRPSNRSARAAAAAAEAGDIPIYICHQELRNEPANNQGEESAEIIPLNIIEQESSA
T1 sequence (looked up) 2: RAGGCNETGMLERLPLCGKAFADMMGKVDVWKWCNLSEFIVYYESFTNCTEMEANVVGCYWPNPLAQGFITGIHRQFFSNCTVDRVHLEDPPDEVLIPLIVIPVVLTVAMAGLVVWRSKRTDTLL

[2] = molecular target: T2, human calcitonin receptor (human, UniProt P30988 25-474); test: cell-based or functional assay
T2 sequence (looked up): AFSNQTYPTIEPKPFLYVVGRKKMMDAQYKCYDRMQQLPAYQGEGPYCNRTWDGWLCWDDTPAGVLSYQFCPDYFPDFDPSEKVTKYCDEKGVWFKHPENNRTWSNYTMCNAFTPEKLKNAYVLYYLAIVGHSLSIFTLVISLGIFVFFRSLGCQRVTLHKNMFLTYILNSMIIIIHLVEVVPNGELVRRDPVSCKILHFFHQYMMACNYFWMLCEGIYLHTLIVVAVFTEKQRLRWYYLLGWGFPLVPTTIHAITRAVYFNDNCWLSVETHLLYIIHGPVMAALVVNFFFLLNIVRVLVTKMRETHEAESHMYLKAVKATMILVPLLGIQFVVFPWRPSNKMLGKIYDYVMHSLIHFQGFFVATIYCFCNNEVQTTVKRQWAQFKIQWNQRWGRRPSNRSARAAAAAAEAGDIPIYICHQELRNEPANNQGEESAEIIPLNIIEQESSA

Binder | hAmylin-R funct. EC50 (pM) [1] [pM] | hCTR funct. EC50 (pM) [2] [pM]
{C14 diacid}-EASELSTAALGRLSAELHELATLPRTETGPESP-NH2 [[N-terminal(C14 diacid)]mimylin] | 6 | 2
{C20 diacid-γGlu}-AASELSTAALGRLSAELHELATYPRTETGSGSP-NH2 (SMILES CC(C)C[C@H](NC(=O)[C@H](C)NC(=O)[C@H](C)NC(=O)[C@@H](NC(=O)[C@H](CO)NC(=O)[C@H](CC(C)C)NC(=O)[C@H](CCC(=O)O)NC(=O)[C@H](CO)NC(=O)[C@H](C)NC(=O)[C@H](C)NC(=O)CC[C@H](NC(=O)CCCCCCCCCCCCCCCCCCC(=O)O)C(=O)O)[C@@H](C)O)C(=O)NCC(=O)N[C@@H](CCCNC(=N)N)C(=O)N[C@@H](CC(C)C)C(=O)N[C@@H](CO)C(=O)N[C@@H](C)C(=O)N[C@@H](CCC(=O)O)C(=O)N[C@@H](CC(C)C)C(=O)N[C@@H](Cc1c[nH]cn1)C(=O)N[C@@H](CCC(=O)O)C(=O)N[C@@H](CC(C)C)C(=O)N[C@@H](C)C(=O)N[C@H](C(=O)N[C@@H](Cc1ccc(O)cc1)C(=O)N1CCC[C@H]1C(=O)N[C@@H](CCCNC(=N)N)C(=O)N[C@H](C(=O)N[C@@H](CCC(=O)O)C(=O)N[C@H](C(=O)NCC(=O)N[C@@H](CO)C(=O)NCC(=O)N[C@@H](CO)C(=O)N1CCC[C@H]1C(N)=O)[C@@H](C)O)[C@@H](C)O)[C@@H](C)O) [[N-terminal(C20 diacid-gGlu), 1A, 23Y, 30S, 31G]mimylin] | 20 | 22
{C14 diacid}-ASELSTAALGRLSAELHELATLPRTETGSGSP-NH2 [[N-terminal(C14 diacid), des1, 30S, 31G]mimylin] | 7 | 5
ASELSTAALGRLSAK([γGlu-C20 diacid])LHELATLPRTETGSGSP-NH2 (N-terminus assumed; SMILES CC(C)C[C@H](NC(=O)[C@H](C)NC(=O)[C@H](C)NC(=O)[C@@H](NC(=O)[C@H](CO)NC(=O)[C@H](CC(C)C)NC(=O)[C@H](CCC(=O)O)NC(=O)[C@H](CO)NC(=O)[C@H](C)N)[C@@H](C)O)C(=O)NCC(=O)N[C@@H](CCCNC(=N)N)C(=O)N[C@@H](CC(C)C)C(=O)N[C@@H](CO)C(=O)N[C@@H](C)C(=O)N[C@@H](CCCCNC(=O)CC[C@H](NC(=O)CCCCCCCCCCCCCCCCCCC(=O)O)C(=O)O)C(=O)N[C@@H](CC(C)C)C(=O)N[C@@H](Cc1c[nH]cn1)C(=O)N[C@@H](CCC(=O)O)C(=O)N[C@@H](CC(C)C)C(=O)N[C@@H](C)C(=O)N[C@H](C(=O)N[C@@H](CC(C)C)C(=O)N1CCC[C@H]1C(=O)N[C@@H](CCCNC(=N)N)C(=O)N[C@H](C(=O)N[C@@H](CCC(=O)O)C(=O)N[C@H](C(=O)NCC(=O)N[C@@H](CO)C(=O)NCC(=O)N[C@@H](CO)C(=O)N1CCC[C@H]1C(N)=O)[C@@H](C)O)[C@@H](C)O)[C@@H](C)O) [[des1, 16K(C20 diacid-gGlu), 30S, 31G]mimylin] | 22 | 31
{C18 diacid-γGlu}-ASELSTAALGRLSAELHELATYPRTETGSGSP-NH2 (SMILES CC(C)C[C@H](NC(=O)[C@H](C)NC(=O)[C@H](C)NC(=O)[C@@H](NC(=O)[C@H](CO)NC(=O)[C@H](CC(C)C)NC(=O)[C@H](CCC(=O)O)NC(=O)[C@H](CO)NC(=O)[C@H](C)NC(=O)CC[C@H](NC(=O)CCCCCCCCCCCCCCCCC(=O)O)C(=O)O)[C@@H](C)O)C(=O)NCC(=O)N[C@@H](CCCNC(=N)N)C(=O)N[C@@H](CC(C)C)C(=O)N[C@@H](CO)C(=O)N[C@@H](C)C(=O)N[C@@H](CCC(=O)O)C(=O)N[C@@H](CC(C)C)C(=O)N[C@@H](Cc1c[nH]cn1)C(=O)N[C@@H](CCC(=O)O)C(=O)N[C@@H](CC(C)C)C(=O)N[C@@H](C)C(=O)N[C@H](C(=O)N[C@@H](Cc1ccc(O)cc1)C(=O)N1CCC[C@H]1C(=O)N[C@@H](CCCNC(=N)N)C(=O)N[C@H](C(=O)N[C@@H](CCC(=O)O)C(=O)N[C@H](C(=O)NCC(=O)N[C@@H](CO)C(=O)NCC(=O)N[C@@H](CO)C(=O)N1CCC[C@H]1C(N)=O)[C@@H](C)O)[C@@H](C)O)[C@@H](C)O) [[N-terminal(C18 diacid-gGlu), des1, 23Y, 30S, 31G]mimylin] | 10 | 10
{C14 diacid-γGlu-γGlu-AEEA-AEEA-AEEA-AEEA}-EASELSTAALGRLSAELHELATLPRTETGPESP-NH2 [[N-terminal(C14 diacid-2xgGlu-4xOEG)]mimylin] | 27 | 7
ASK([γGlu-C20 diacid])LSTAALGRLSAELHELATLPRTETGSGSP-NH2 (N-terminus assumed; SMILES CC(C)C[C@H](NC(=O)[C@H](C)NC(=O)[C@H](C)NC(=O)[C@@H](NC(=O)[C@H](CO)NC(=O)[C@H](CC(C)C)NC(=O)[C@H](CCCCNC(=O)CC[C@H](NC(=O)CCCCCCCCCCCCCCCCCCC(=O)O)C(=O)O)NC(=O)[C@H](CO)NC(=O)[C@H](C)N)[C@@H](C)O)C(=O)NCC(=O)N[C@@H](CCCNC(=N)N)C(=O)N[C@@H](CC(C)C)C(=O)N[C@@H](CO)C(=O)N[C@@H](C)C(=O)N[C@@H](CCC(=O)O)C(=O)N[C@@H](CC(C)C)C(=O)N[C@@H](Cc1c[nH]cn1)C(=O)N[C@@H](CCC(=O)O)C(=O)N[C@@H](CC(C)C)C(=O)N[C@@H](C)C(=O)N[C@H](C(=O)N[C@@H](CC(C)C)C(=O)N1CCC[C@H]1C(=O)N[C@@H](CCCNC(=N)N)C(=O)N[C@H](C(=O)N[C@@H](CCC(=O)O)C(=O)N[C@H](C(=O)NCC(=O)N[C@@H](CO)C(=O)NCC(=O)N[C@@H](CO)C(=O)N1CCC[C@H]1C(N)=O)[C@@H](C)O)[C@@H](C)O)[C@@H](C)O) [[des1, 4K(C20 diacid-gGlu), 30S, 31G]mimylin] | 39 | 34
{C14 diacid-γGlu}-ASELSTAALGRLSAELHELATLPRTETGSGSP-NH2 [[N-terminal(C14 diacid-gGlu), des1, 30S, 31G]mimylin] | 6 | 4
ASELSTAALGRLSAELHK([γGlu-C20 diacid])LATLPRTETGSGSP-NH2 (N-terminus assumed; SMILES CC(C)C[C@H](NC(=O)[C@H](C)NC(=O)[C@H](C)NC(=O)[C@@H](NC(=O)[C@H](CO)NC(=O)[C@H](CC(C)C)NC(=O)[C@H](CCC(=O)O)NC(=O)[C@H](CO)NC(=O)[C@H](C)N)[C@@H](C)O)C(=O)NCC(=O)N[C@@H](CCCNC(=N)N)C(=O)N[C@@H](CC(C)C)C(=O)N[C@@H](CO)C(=O)N[C@@H](C)C(=O)N[C@@H](CCC(=O)O)C(=O)N[C@@H](CC(C)C)C(=O)N[C@@H](Cc1c[nH]cn1)C(=O)N[C@@H](CCCCNC(=O)CC[C@H](NC(=O)CCCCCCCCCCCCCCCCCCC(=O)O)C(=O)O)C(=O)N[C@@H](CC(C)C)C(=O)N[C@@H](C)C(=O)N[C@H](C(=O)N[C@@H](CC(C)C)C(=O)N1CCC[C@H]1C(=O)N[C@@H](CCCNC(=N)N)C(=O)N[C@H](C(=O)N[C@@H](CCC(=O)O)C(=O)N[C@H](C(=O)NCC(=O)N[C@@H](CO)C(=O)NCC(=O)N[C@@H](CO)C(=O)N1CCC[C@H]1C(N)=O)[C@@H](C)O)[C@@H](C)O)[C@@H](C)O) [[des1, 19K(C20 diacid-gGlu), 30S, 31G]mimylin] | 28 | 19
{C20 diacid-γGlu}-ASELSTAALGRLSAELHELATYPRTETGSGSP-NH2 (SMILES CC(C)C[C@H](NC(=O)[C@H](C)NC(=O)[C@H](C)NC(=O)[C@@H](NC(=O)[C@H](CO)NC(=O)[C@H](CC(C)C)NC(=O)[C@H](CCC(=O)O)NC(=O)[C@H](CO)NC(=O)[C@H](C)NC(=O)CC[C@H](NC(=O)CCCCCCCCCCCCCCCCCCC(=O)O)C(=O)O)[C@@H](C)O)C(=O)NCC(=O)N[C@@H](CCCNC(=N)N)C(=O)N[C@@H](CC(C)C)C(=O)N[C@@H](CO)C(=O)N[C@@H](C)C(=O)N[C@@H](CCC(=O)O)C(=O)N[C@@H](CC(C)C)C(=O)N[C@@H](Cc1c[nH]cn1)C(=O)N[C@@H](CCC(=O)O)C(=O)N[C@@H](CC(C)C)C(=O)N[C@@H](C)C(=O)N[C@H](C(=O)N[C@@H](Cc1ccc(O)cc1)C(=O)N1CCC[C@H]1C(=O)N[C@@H](CCCNC(=N)N)C(=O)N[C@H](C(=O)N[C@@H](CCC(=O)O)C(=O)N[C@H](C(=O)NCC(=O)N[C@@H](CO)C(=O)NCC(=O)N[C@@H](CO)C(=O)N1CCC[C@H]1C(N)=O)[C@@H](C)O)[C@@H](C)O)[C@@H](C)O) [[N-terminal(C20 diacid-gGlu), des1, 23Y, 30S, 31G]mimylin] | 22 | 23
{C16 diacid}-ASELSTAALGRLSAELHELATLPRTETGSGSP-NH2 [[N-terminal(C16 diacid), des1, 30S, 31G]mimylin] | 10 | 10
